# According to patent US11781101B2, “3D-printed models of biological microenvironments” (Regents of the University of Minnesota, priority 2018, dated 2023):
# Key:
# [1] = tested on: GFP-A549 lung cancer cells; assay: 3D-printed directional cell migration chamber, EGF capsules, A549; type: cell-based
# Excerpt: In the example experiment illustrated in FIG. 14, a droplet of fibrin loaded with GFP-A549 lung cancer cells 1400 was printed between linear arrays of chemoattractant capsules 1404 (right) and blank control capsules 1402 (left). The printed droplet defined the primary site of the tumor cells 1400. To generate a long-lasting EGF gradient, capsules 1402 and 1404 were ruptured sequentially at 2-day intervals, starting with the capsule 1408A closest to the cell 1400. Concomitantly, a corresponding control capsule 1408B was also ruptured. The resulting EGF gradient and GFP-A549 response to the gradient is discussed below with respect to FIGS. 15A-17.
# FIG. 15B is panoramic fluorescence images illustrating distribution of the GFP-expressing A549 cells of FIG. 15A over time during days 6-10 post-laser rupture of the EGF-containing programmable-release capsules of FIG. 15A. […]
# FIG. 16 is a graphical representation of cellular fluorescence intensity of example EGF-expressing A549 cells vs time, with and without EGF release from example programmable-release capsules within a cell migration chamber in accordance with examples of this disclosure. […] The cellular growth rates were first quantitatively compared between samples with and without laser-triggered release of EGF by directly analyzing the fluorescence intensity of GFP-expressing cells. […]
# [2] = tested on: GFP-expressing M4A4 cells (a melanoma cell line); assay: 3D-printed directional cell migration chamber, EGF capsules, M4A4; type: cell-based; conditions: EGF capsules sequentially ruptured over 10 days
# Excerpt: (§1) FIG. 21 is a graphical representation of relative selective directed migration of A549 tumor cells, M4A4 tumor cells, and non-tumor HUVEC cells of FIGS. 20A and 20B in response to laser rupture of the EGF-containing programmable release capsules within an example cell migration chamber in accordance with examples of this disclosure. FIG. 21 illustrates distributions of GFP-A549s, GFP-M4A4s, and RFP-HUVECs on day 10, showing the selective directed migration of tumor cells but not HUVECs (mean±s.d., n=4 per group). Scale bar: 500 μm.
# [3] = tested on: RFP-expressing HUVEC cells; assay: 3D-printed directional cell migration chamber, EGF capsules, HUVEC; type: cell-based, human; conditions: EGF capsules sequentially ruptured over 10 days
# Excerpt: as §1
# [4] = tested on: A549 cells in HUVEC-lined conduit; assay: Vascularized extravasation model, EGF capsules; type: cell-based; conditions: EGF gradients from ruptured capsules, fibroblast-laden gel, by day 4
# Excerpt: FIG. 24A is confocal images of a top view and a side view of a representative microchannel lined by HUVECs within a fibrin gel, such as in the context of the example 3D-printed culture chamber of FIG. 23. FIG. 24B is a fluorescence image of a representative microchannel lined by HUVECs and perfused by fluorescent fluid. In the example of FIG. 24A, a microchannel was created using the pin-molding technique within the fibrin gel of the culture chamber. […]
# FIG. 26A is fluorescence images of a conduit of an example vascularized 3D-printed culture chamber illustrating guided extravasation of A549s and subsequent metastases generated over time on days 0 and 2 following the programmable release of EGF from EGF-containing programmable release capsules in accordance with examples of this disclosure. FIG. 26B is fluorescence images of the conduit of FIG. 26A illustrating guided extravasation of A549s and subsequent metastases generated over time on days 4 and 6 following laser-triggered rupture of EGF-containing programmable-release capsules (inset: fluorescence image showing transendothelial formation of metastasis). […]
# FIG. 27 is fluorescence images showing the vascularized extravasation model of FIG. 26 after A549s were injected within the conduit without rupture of EGF capsules. […]
molecule,measurement,setting,value
"EGF: EGF, a chemoattractant of carcinoma cells, encapsulated in programmable-release capsules (protein, UniProt P01133 23-1207, looked up, Pro-epidermal growth factor encapsulated in programmable-release capsules) Pro-epidermal growth factor: PQHWSCPEGTLAGNGNSTCVGPAPFLIFSHGNSIFRIDTEGTNYEQLVVDAGVSVIMDFHYNEKRIYWVDLERQLLQRVFLNGSRQERVCNIEKNVSGMAINWINEEVIWSNQQEGIITVTDMKGNNSHILLSALKYPANVAVDPVERFIFWSSEVAGSLYRADLDGVGVKALLETSEKITAVSLDVLDKRLFWIQYNREGSNSLICSCDYDGGSVHISKHPTQHNLFAMSLFGDRIFYSTWKMKTIWIANKHTGKDMVRINLHSSFVPLGELKVVHPLAQPKAEDDTWEPEQKLCKLRKGNCSSTVCGQDLQSHLCMCAEGYALSRDRKYCEDVNECAFWNHGCTLGCKNTPGSYYCTCPVGFVLLPDGKRCHQLVSCPRNVSECSHDCVLTSEGPLCFCPEGSVLERDGKTCSGCSSPDNGGCSQLCVPLSPVSWECDCFPGYDLQLDEKSCAASGPQPFLLFANSQDIRHMHFDGTDYGTLLSQQMGMVYALDHDPVENKIYFAHTALKWIERANMDGSQRERLIEEGVDVPEGLAVDWIGRRFYWTDRGKSLIGRSDLNGKRSKIITKENISQPRGIAVHPMAKRLFWTDTGINPRIESSSLQGLGRLVIASSDLIWPSGITIDFLTDKLYWCDAKQSVIEMANLDGSKRRRLTQNDVGHPFAVAVFEDYVWFSDWAMPSVMRVNKRTGKDRVRLQGSMLKPSSLVVVHPLAKPGADPCLYQNGGCEHICKKRLGTAWCSCREGFMKASDGKTCLALDGHQLLAGGEVDLKNQVTPLDILSKTRVSEDNITESQHMLVAEIMVSDQDDCAPVGCSMYARCISEGEDATCQCLKGFAGDGKLCSDIDECEMGVPVCPPASSKCINTEGGYVCRCSEGYQGDGIHCLDIDECQLGEHSCGENASCTNTEGGYTCMCAGRLSEPGLICPDSTPPPHLREDDHHYSVRNSDSECPLSHDGYCLHDGVCMYIEALDKYACNCVVGYIGERCQYRDLKWWELRHAGHGQQQKVIVVAVCVVVLVMLLLLSLWGAHYYRTQKLLSKNPKNPYEESSRDVRSRRPADTEDGMSSCPQPWFVVIKEHQDLKNGGQPVAGEDGQAADGSMQPTSWRQEPQLCGMGTEQGCWIPVSSDKGSCPQVMERSFHMPSYGTQTLEGGVEKPHSLLSANPLWQQRALDPPHQMELTQ",maximum cell velocity of leading A549 cells,"[1]; guidance of EGF cues from sequentially laser-ruptured capsules in fibrin gel, x-direction displacement, mean±s.d., n=4",15.48±1.05 μm/h
same,"growth (proliferation) of tumor cells, cellular fluorescence intensity","[1]; laser-triggered EGF release vs no release, 10 days",accelerated
same,directed migration of M4A4 cells,[2],exhibited directional movement
same,migratory response of HUVECs to EGF gradients,[3],negative migratory response
same,transendothelial behavior (extravasation) of A549s,[4],cells underwent both extravasation and proliferation
